Data set [1] has as its system 6His-ArsR1 (Pseudomonas putida KT2440). Description: EMSA. Particulars: no arsenite; 'gross KD'; EMSA: TRRG buffer (20 mM Tris-HCl pH 7.5, 50 mM KCl, 2 mM beta-mercaptoethanol, 10% glycerol), BSA, 25 ug/ml herring sperm DNA, 0.3 nM probe, 20 min 30 C ….
Data set [2] concerns 6His-ArsR2 (Pseudomonas putida KT2440). Description: EMSA. As to conditions: no arsenite; 'gross KD'; EMSA: TRRG buffer (20 mM Tris-HCl pH 7.5, 50 mM KCl, 2 mM beta-mercaptoethanol, 10% glycerol), BSA, 25 ug/ml herring sperm DNA, 0.3 nM probe, 20 min 30 C ….
Data set [3] concerns the molecule itself. Description: AUC; sedimentation velocity, 20°C, 48,000 rpm, 20 mM NaH2PO4, 100 mM KCl, 2 mM β-mercaptoethanol, pH 8.0, with or without 2 mM arsenite; data shown for 20 μM protein (methods: 42 μM 6His-ArsR1, 36 μM 6His-ArsR2); s = 2.1 ± 0.1 S.

In data set [1], Pars1 probe returned a Kd of 200 nM. In data set [2], Pars2 probe returned a Kd of 500 nM.

B1: 6His-ArsR2 (natural protein, Pseudomonas putida KT2440, UniProt Q88JD1 1-115, looked up)
chain: MITPPDVFKSLSDETRARATLLIASLGELCVCELMCALNDSQPKISRHLAQLRSNGMLLDRRQGQWVYYRLNPELPSWVHEMLQVTLQANSQWLADNALRLKNMDGRPVRDSVCC
notes: ArsR2, As(III)-responsive transcriptional repressor of the ars2 operon (SmtB/ArsR family), Pseudomonas putida KT2440; protein of 115 amino acids; 364-bp PCR fragment that includes the arsR2 gene cloned BamHI/HindIII into pQE32; Theoretical monomer mass with tag 14,519 Da; source: E. coli M15 (pREP4, pQE32-ArsR2), purified (Ni-NTA agarose, dialysed)
On to B1, for which the “stoichiometry N” value in data set [3] was 2.

B2: 6His-ArsR1 (natural protein, Pseudomonas putida KT2440, UniProt Q88LK1 11-128, looked up)
chain: MREILTPPIVFKCLADDTRARMTLLIAREGELCVCELTHALELSQPKISRHLAQLREAGILMDRRKGQWVYYRLHPEVPQWVDAMLKGVVDANQEWLSPDALRLAEMGERPQSPVACA
notes: ArsR1, As(III)-responsive transcriptional repressor of the ars1 operon (SmtB/ArsR family), Pseudomonas putida KT2440; protein of 118 amino acids; 373-bp PCR fragment that includes the arsR1 gene cloned BamHI/HindIII into pQE32; Theoretical monomer mass with tag 14,869 Da; source: E. coli M15 (pREP4, pQE32-ArsR1), purified (Ni-NTA agarose, dialysed)
For the molecule B2, the “stoichiometry N” value in data set [3] stood at 2.

These data come from PMC7994332, “A Bifan Motif Shaped by ArsR1, ArsR2, and Their Cognate Promoters Frames Arsenic Tolerance of Pseudomonas putida” (Frontiers in Microbiology, 2021).
